We go through three molecules from patent US20050048512A1 (published 2005).

Usually Kd stands for the concentration at which binding is half-saturated.

Where “and” joins values, the source holds several entries; their conditions need not be identical. Equal entries are not always repeated.

One experiment addresses CD28 on human PBMC (human, UniProt P10747 19-220). Description: cell-based or functional assay.
Another experiment has as its target CD28 on monkey PBMC (monkey (cynomolgus), UniProt Q0PDN3 19-220). Put plainly: cell-based or functional assay.
Experiment [1] addresses T1, CD28 (UniProt P10747 19-152, limits assumed).
T1 construct: Purified CD28 immobilized by NHS/EDC coupling (Biacore) or hydrophobic adsorption (ELISA); also called target protein CD28
Put plainly: Biacore, CD28 on CM5 chip, 0.5 and 5 uM protein in flow. A general note: SPR reads the build-up and loss of mass on a sensor chip optically.

Experiment [2] has as its target T1, CD28. Put plainly: ELISA, 10 ng CD28 per well, serial dilutions of protein, anti-HA-HRP detection.
Experiment [3] deals with T2, CD20 on Raji or Daudi cells (UniProt P11836 1-297, limits assumed).
T2 construct: whole, on cells
T2 sequence (looked up): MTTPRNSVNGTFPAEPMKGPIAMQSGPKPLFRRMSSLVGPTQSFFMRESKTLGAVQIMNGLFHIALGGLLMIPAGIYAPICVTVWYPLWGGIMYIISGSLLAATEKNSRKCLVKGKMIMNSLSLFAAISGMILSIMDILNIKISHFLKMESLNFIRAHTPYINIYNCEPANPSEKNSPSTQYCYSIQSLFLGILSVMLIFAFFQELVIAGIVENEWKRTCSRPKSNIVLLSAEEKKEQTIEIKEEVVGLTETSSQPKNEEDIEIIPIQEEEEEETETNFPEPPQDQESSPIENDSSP
Put plainly: phage clone on Raji or Daudi cells with or without 1 mg/mL Rituxan.

B1: CD28-A10 (designed binder)
chain: CGPGRFQCESGQCVPATWVCDGDDDCADGSDEKSCATTAPTCESNQFQCGSGQCLPGTWRCDGVNDCADSSDETGCGRPGPGATSAPAACGPGRFQCNNGNCVPQTLGCDGDNDCGDSSDEANCSAPASEPPGSL
notes: LDL receptor A-domain trimer; also called CD28 10; CD28 trimer clone 10
Regarding B1, the “IC50, PBMC assay on human cells (3H thymidine incorporation)” value with CD28 on human PBMC is 3 nM and 40 ng/ml. In the experiment with CD28 on monkey PBMC, the “IC50, PBMC assay on monkey cells (3H thymidine incorporation)” value was found to be 7 nM. For the same molecule, the affinity in the experiment with CD28 [1], expressed as Kd, was 29 nM. Also, the “ELISA (column head; quantity not named)” value with CD28 [2] turned out to be 1.7e-10.

Turning to CLPERFQCAVPGYCIPLPGVCDGVNDCQEDSDEPNCRAPGLR (designed binder) [CD20 binding sequence 8], the binding result in experiment [3] is “binds”.

Consider CRRNEFRCKSGHCVPQPLVCDGVRDCEDNSDEPSCGRPGPGATSAPAA (designed binder) [CD20 binding sequence 9], for which the binding result in experiment [3] was “binds”.
